The values that follow come from patent publication US20030099608A1 (ZymoGenetics, published 2003).

In assay [1] the target is human IL-TIF (T-cell inducible Factor) (human) (UniProt Q9GZX6). The experiment in a line: cell-based or functional assay.
In assay [2] the target is T1, CRF2-4/zcytor11 heterodimeric receptor on BaF3 cells (BaF3/CRF2-4/zcytor11 cells) (human, UniProt Q08334 20-325; Q8N6P7 16-574).
T1 sequence (looked up) 1: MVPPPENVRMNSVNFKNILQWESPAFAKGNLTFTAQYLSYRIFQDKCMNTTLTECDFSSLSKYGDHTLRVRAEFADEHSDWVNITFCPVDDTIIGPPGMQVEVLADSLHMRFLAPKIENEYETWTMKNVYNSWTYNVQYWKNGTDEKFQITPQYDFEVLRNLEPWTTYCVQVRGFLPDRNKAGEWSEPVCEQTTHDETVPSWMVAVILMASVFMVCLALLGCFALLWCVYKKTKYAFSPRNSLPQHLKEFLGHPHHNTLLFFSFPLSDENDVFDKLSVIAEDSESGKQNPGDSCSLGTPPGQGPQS
T1 sequence (looked up) 2: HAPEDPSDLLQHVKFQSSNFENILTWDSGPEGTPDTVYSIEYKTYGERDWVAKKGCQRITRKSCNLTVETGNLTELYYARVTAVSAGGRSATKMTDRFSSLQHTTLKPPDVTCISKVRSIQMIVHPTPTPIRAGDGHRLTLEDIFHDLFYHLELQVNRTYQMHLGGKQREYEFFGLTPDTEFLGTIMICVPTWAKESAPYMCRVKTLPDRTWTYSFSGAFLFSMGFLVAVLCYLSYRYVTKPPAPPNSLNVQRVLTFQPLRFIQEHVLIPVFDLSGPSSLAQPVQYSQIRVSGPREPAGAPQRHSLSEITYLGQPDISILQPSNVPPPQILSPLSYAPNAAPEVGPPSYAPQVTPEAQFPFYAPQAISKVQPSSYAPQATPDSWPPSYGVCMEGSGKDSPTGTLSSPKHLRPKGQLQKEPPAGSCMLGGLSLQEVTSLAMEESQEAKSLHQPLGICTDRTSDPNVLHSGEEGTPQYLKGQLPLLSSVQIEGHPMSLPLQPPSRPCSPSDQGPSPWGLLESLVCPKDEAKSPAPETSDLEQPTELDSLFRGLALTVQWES
The experiment in a line: cell-based or functional assay.

In assay [1], “secreted hzcytor11/hCRF2-4 heterodimer (CRF2-4/zcytor11-Fc4) (Fc fusion)” gave a concentration of CRF2-4/zcytor11-Fc4 at which inhibition of proliferation induced by 100 pg/ml IL-TIF was barely detectable of 63 ng/mL and a concentration of CRF2-4/zcytor11-Fc4 giving complete inhibition of proliferation induced by 100 pg/ml IL-TIF of 8 µg/mL.

B1: human IL-TIF (T-cell inducible Factor) (ligand)
chain: APISSHCRLDKSNFQQPYITNRTFMLAKEASLADNNTDVRLIGEKLFHGVSMSERCYLMKQVLNFTLEEVLFPQSDRFQPYMQEVVPFLARLSNRLSTCHIEGDDLHIQRNVQKLKDTVKKLGESGEIKAIGELDLLFMSLRNACI
As for B1, the “proliferation of BaF3/CRF2-4/zcytor11 cells (Alamar Blue), fold over background with 100 pg/ml IL-TIF alone” value in assay [2] was 13 fold over background.

B2: IL-TIF-CEE (IL-TIF polypeptide with C-terminal Glu-Glu tag) (ligand)
chain: APISSHCRLDKSNFQQPYITNRTFMLAKEASLADNNTDVRLIGEKLFHGVSMSERCYLMKQVLNFTLEEVLFPQSDRFQPYMQEVVPFLARLSNRLSTCHIEGDDLHIQRNVQKLKDTVKKLGESGEIKAIGELDLLFMSLRNACIEYMPME
On to B2, for which, in assay [2], the “proliferation of BaF3/CRF2-4/zcytor11 cells (Alamar Blue), fold induction at 0.06 ng/ml IL-TIF-CEE” value amounted to 2 fold induction and the “proliferation of BaF3/CRF2-4/zcytor11 cells (Alamar Blue), fold over background at 50 ng/ml IL-TIF-CEE” value is approximately 15 fold over background.
